Literature values as cited in publication PMC3903589.

Tests used:
[1] = biological target: CEACAM1 (UniProt P13688); test: SPR
[2] = biological target: NCAM (UniProt P13591); test: SPR

CEACAM1 (from UniProt P13688)
Kd [1]: 7.65 µM

NCAM (from UniProt P13591)
Kd [2]: 0.025 µM
